According to patent US20120316071A1:
Blank lines part the entries; values can stand above or below the substance they belong to.

How the values were obtained:
[1] = molecular target: Recombinant Human DLL4 (R&D Systems Cat#1506-D4/CF) (human) (UniProt Q9NR61); assay: ECL (MSD) multispot binding assay, antigen spotted on plate, Fab in solution
[2] = molecular target: rHuman Notch-1/Fc Chimera, CF (R&D Systems Cat#3647-TK) (human) (UniProt P46531); assay: ECL multispot (MSD) binding assay; antigen spotted on plate, Fab in solution, Ru-labelled anti-kappa detection
[3] = molecular target: rHuman Erythropoietin R/Fc Chimera, CF (R&D Systems Cat#963-ER) (human) (UniProt P19235); assay: as above
[4] = molecular target: rHuman CD44/Fc Chimera, CF (R&D Systems Cat#3660-CD) (human) (UniProt P16070); assay: as above
[5] = molecular target: rHuman ErbB2/Fc Chimera, CF (R&D Systems Cat#1129-ER) (human) (UniProt P04626); assay: as above
[6] = molecular target: rHuman Notch-1/Fc Chimera, CF (R&D Systems Cat#3647-TK) (human) (UniProt P46531); assay: ECL Multispot (MSD) assay, antigen spotted on plate, 10 nM Fab
[7] = molecular target: rHuman Notch-1/Fc Chimera, CF (R&D Systems Cat#3647-TK) (human) (UniProt P46531); assay: ECL (MSD) multispot binding assay, antigen spotted on plate, 20 nM Fab
[8] = molecular target: rHuman Erythropoietin R/Fc Chimera, CF (R&D Systems Cat#963-ER) (human) (UniProt P19235); assay: ECL multispot (MSD) assay, antigen spotted on plate, 10 nM Fab
[9] = molecular target: rHuman IGF-1 sR, (IGF-1 sR), CF (R&D Systems Cat#391-GR) (human) (UniProt P08069); assay: Multispot ECL (MSD), antigen spotted on plate, Fab 52.5 nM; blank spot 467
[10] = molecular target: rHuman IGF-1 sR, (IGF-1 sR), CF (R&D Systems Cat#391-GR) (human) (UniProt P08069); assay: Multispot ECL (MSD), antigen spotted on plate, Fab 210 nM; blank spot 833
[11] = molecular target: rHuman IGF-1 sR, (IGF-1 sR), CF (R&D Systems Cat#391-GR) (human) (UniProt P08069); assay: Multispot ECL (MSD), antigen spotted on plate, Fab […]; blank spot 376
[12] = molecular target: rHuman IGF-1 sR, (IGF-1 sR), CF (R&D Systems Cat#391-GR) (human) (UniProt P08069); assay: Multispot ECL (MSD), antigen spotted on plate, Fab […]; blank spot 359
[13] = molecular target: rHuman IGF-1 sR, CF (R&D Systems Cat#391-GR) (human) (UniProt P08069); assay: ECL multispot (MSD) assay, antigen spotted on plate, 20 nM Fab
[14] = molecular target: rHuman Notch-1/Fc Chimera, CF (R&D Systems Cat#3647-TK) (human) (UniProt P46531); assay: as above
[15] = molecular target: rHuman EGF R/Fc Chimera, CF (R&D Systems Cat#344-ER) (human) (UniProt P00533); assay: as above
[16] = molecular target: rHuman CD44/Fc Chimera, CF (R&D Systems Cat#3660-CD) (human) (UniProt P16070); assay: as above
[17] = molecular target: rHuman P-Cadherin/Fc Chimera, CF (R&D Systems Cat#861-PC) (human) (UniProt P22223); assay: ECL multispot (MSD), antigen spotted, Fab in solution
[18] = molecular target: rHuman IGF-1 sR, CF (R&D Systems Cat#391-GR) (human) (UniProt P08069); assay: as above
[19] = molecular target: rHuman Notch-1/Fc Chimera, CF (R&D Systems Cat#3647-TK) (human) (UniProt P46531); assay: as above
[20] = molecular target: Recombinant Human DLL4 (R&D Systems Cat#1506-D4/CF) (human) (UniProt Q9NR61); assay: as above
[21] = molecular target: rHuman HGF R/c-MET/Fc Chimera, CF (R&D Systems Cat#358-MT/CF) (human) (UniProt P08581); assay: as above
[22] = molecular target: rHuman EGF R/Fc Chimera, CF (R&D Systems Cat#344-ER) (human) (UniProt P00533); assay: as above
[23] = molecular target: rHuman Erythropoietin R/Fc Chimera, CF (R&D Systems Cat#963-ER) (human) (UniProt P19235); assay: as above
[24] = molecular target: rHuman CD44/Fc Chimera, CF (R&D Systems Cat#3660-CD) (human) (UniProt P16070); assay: as above
[25] = molecular target: rHuman Erythropoietin R/Fc Chimera, CF (R&D Systems Cat#963-ER) (human) (UniProt P19235); assay: Multispot ECL (MSD) assay, antigen spotted on plate, Fab at 42.112 nM; blank spot 323
[26] = molecular target: rHuman Erythropoietin R/Fc Chimera, CF (R&D Systems Cat#963-ER) (human) (UniProt P19235); assay: Multispot ECL (MSD) assay, antigen spotted on plate, Fab at 421.12 nM; blank spot 639
[27] = molecular target: rHuman Notch-1/Fc Chimera, CF (R&D Systems Cat#3647-TK) (human) (UniProt P46531); assay: Multispot ECL (MSD), antigen spotted on plate, Fab 0.12 nM; blank spot 264
[28] = molecular target: Recombinant Human DLL4 (R&D Systems Cat#1506-D4/CF) (human) (UniProt Q9NR61); assay: as above
[29] = molecular target: rHuman HGF R/c-MET/Fc Chimera, CF (R&D Systems Cat#358-MT/CF) (human) (UniProt P08581); assay: as above
[30] = molecular target: rHuman ErbB2/Fc Chimera, CF (R&D Systems Cat#1129-ER) (human) (UniProt P04626); assay: as above
[31] = molecular target: rHuman Notch-1/Fc Chimera, CF (R&D Systems Cat#3647-TK) (human) (UniProt P46531); assay: Multispot ECL (MSD), antigen spotted on plate, Fab 12 nM; blank spot 573
[32] = molecular target: Recombinant Human DLL4 (R&D Systems Cat#1506-D4/CF) (human) (UniProt Q9NR61); assay: as above
[33] = molecular target: rHuman HGF R/c-MET/Fc Chimera, CF (R&D Systems Cat#358-MT/CF) (human) (UniProt P08581); assay: as above
[34] = molecular target: rHuman ErbB2/Fc Chimera, CF (R&D Systems Cat#1129-ER) (human) (UniProt P04626); assay: as above
[35] = molecular target: rHuman Notch-1/Fc Chimera, CF (R&D Systems Cat#3647-TK) (human) (UniProt P46531); assay: Multispot ECL (MSD), antigen spotted on plate, Fab 1.2 nM; blank spot 227
[36] = molecular target: Recombinant Human DLL4 (R&D Systems Cat#1506-D4/CF) (human) (UniProt Q9NR61); assay: as above
[37] = molecular target: rHuman HGF R/c-MET/Fc Chimera, CF (R&D Systems Cat#358-MT/CF) (human) (UniProt P08581); assay: as above
[38] = molecular target: rHuman ErbB2/Fc Chimera, CF (R&D Systems Cat#1129-ER) (human) (UniProt P04626); assay: as above
[39] = molecular target: rHuman Notch-1/Fc Chimera, CF (R&D Systems Cat#3647-TK) (human) (UniProt P46531); assay: Multispot ECL (MSD), antigen spotted on plate, Fab 120 nM; blank spot 6749
[40] = molecular target: Recombinant Human DLL4 (R&D Systems Cat#1506-D4/CF) (human) (UniProt Q9NR61); assay: as above
[41] = molecular target: rHuman HGF R/c-MET/Fc Chimera, CF (R&D Systems Cat#358-MT/CF) (human) (UniProt P08581); assay: as above
[42] = molecular target: rHuman ErbB2/Fc Chimera, CF (R&D Systems Cat#1129-ER) (human) (UniProt P04626); assay: as above

Substance: Fab VH3-23_IGHD3-10*01>3_IGHJ6*01 R104A & O12_IGKJ1*01
- ECL multispot value (looks like signal/blank ratio; not labelled) [1]: 2.7

Substance: Fab VH1-46_IGHD6-6*01_IGHJ1*01 S102A/S103P/S104F/H111F F29A & L6_IGKJ1*01
- ECL signal [2]: 6090
- ECL signal [3]: 1060
- ECL signal [4]: 978
- ECL signal [5]: 1290
- ECL signal [6]: 374

Substance: Fab VH4-31_IGHD2-15*01_IGHJ2*01 & V1-4_IGLJ4*01
- ECL signal at 52.5 nM Fab [9]: 911
- ECL signal at 210 nM Fab [10]: 1430
- ECL signal at 13.1 nM Fab [11]: 814
- ECL signal at 3.3 nM Fab [12]: 743

Substance: Fab VH3-23_IGHD3-10*01>1′_IGHJ3*01 & O12_IGKJ1*01
- ECL signal [25]: 759
- ECL signal [26]: 1300

Substance: Fab VH3-23_IGHD3-10*01>3_IGHJ6*01 & O12_IGKJ1*01
- ECL signal [27]: 218
- ECL signal [28]: 210
- ECL signal [29]: 287
- ECL signal [30]: 287
- ECL signal [31]: 2580
- ECL signal [32]: 2510
- ECL signal [33]: 2700
- ECL signal [34]: 4360
- ECL signal [35]: 660
- ECL signal [36]: 319
- ECL signal [37]: 412
- ECL signal [38]: 677
- ECL signal [39]: 14400
- ECL signal [40]: 20600
- ECL signal [41]: 15900
- ECL signal [42]: 17300

Other lines, results leading:

- ECL multispot value (looks like signal/blank ratio; not labelled) [1]: 2.7
Substance: Fab VH3-23_IGHD3-10*01>3_IGHJ6*01 Y115G & O12_IGKJ1*01

- ECL multispot value [7]: 3.3
Substance: Fab VH3-23_IGHD2-21*01>3_IGHJ6*01 H100E/S108P/Y113G Y114E & V2-13_IGLJ2*01

- ECL signal [8]: 438
Substance: Fab VH1-46_IGHD6-6*01_IGHJ1*01 S102A/S103P/S104F/H111F & L6_IGKJ1*01

- ECL multispot value [7]: 3.3
Substance: Fab VH3-23_IGHD2-21*01>3_IGHJ6*01 H100E/S108P/Y113G Y114H & V2-13_IGLJ2*01

- ECL signal/blank ratio (read-out not given) [13]: 1.4
- ECL signal/blank ratio (read-out not given) [14]: 3
- ECL signal/blank ratio (read-out not given) [15]: 7.1
- ECL signal/blank ratio (read-out not given) [16]: 1.7
Substance: Fab VH3-23_IGHD2-21*01>3_IGHJ6*01 H100E/S108P K65A & V2-13_IGLJ2*01

- ECL signal/blank ratio [17]: 3
- ECL signal/blank ratio [18]: 1.6
- ECL signal/blank ratio [19]: 1.7
- ECL signal/blank ratio [20]: 1.8
- ECL signal/blank ratio [21]: 1.4
- ECL signal/blank ratio [22]: 1.2
- ECL signal/blank ratio [23]: 2.4
- ECL signal/blank ratio [24]: 1.4
Substance: Fab VH3-23_IGHD3-10*01>3_IGHJ6*01 Y112Q & O12_IGKJ1*01
